Abundance fitness data for 167 variants are collected here from the Human Domainome abundance scans (Beltran et al. 2025).

B1: Tyrosine-protein kinase Lck, residues 63 to 120; numbered along this chain, P06239 (parent)
chain: DNLVIALHSYEPSHDGDLGFEKGEQLRILEQSGEWWKAQSLTTGQEGFIPFNFVAKAN

± gives the uncertainty stated by the source.

The data set covers variants of B1. The experiment in a line: abundance fitness (aPCA) (normalised: wild type 0, dead -1); higher = more abundant; growth selection in yeast, the domain comes from the species named. Particulars: Homo sapiens.
Turning to R27L, the abundance fitness is -0.056 ± 0.088.
To R27H belongs -0.049 ± 0.13; to R27D, -0.421 ± 0.13; to R27S, -0.465 ± 0.091.
The result for R27K reads -0.154 ± 0.14; that for R27N, -0.471 ± 0.14.
R27T: the abundance fitness was -0.24 ± 0.12.
Take R27Y: the abundance fitness was -0.193 ± 0.3.
With R27C, the abundance fitness was -0.208 ± 0.13.
Turning to R27E, the abundance fitness was -0.022 ± 0.14.
For R27W, the abundance fitness was -0.44 ± 0.15.
To R27I belongs -0.162 ± 0.14; to R27M, -0.309 ± 0.14.
The result for R27V reads -0.062 ± 0.089; that for R27P, -0.914 ± 0.29.
To R27G belongs -0.881 ± 0.12; to R27F, -0.448 ± 0.13; to G33Y, -0.922 ± 0.25.
With G33D, the abundance fitness was -0.467 ± 0.11.
Take G33C: the abundance fitness was -0.491 ± 0.13.
The result for G33A reads -0.398 ± 0.09; that for G33P, -0.544 ± 0.14.
The result for G33V reads -0.881 ± 0.12; that for G33H, -0.633 ± 0.17.
On to G33E, for which the abundance fitness is -0.491 ± 0.12.
The result for G33S reads -0.166 ± 0.097; that for G33N, -0.145 ± 0.26; that for G33Q, -0.767 ± 0.33.
The result for G33L reads -0.812 ± 0.12.
Take G33W: the abundance fitness is -0.929 ± 0.18.
As to G33K, the abundance fitness is -0.545 ± 0.16.
For the variant G33F, the abundance fitness was -0.853 ± 0.23.
Take Q39K: the abundance fitness is -0.042 ± 0.12.
In the case of Q39L, the abundance fitness was -0.312 ± 0.083.
On to Q39A, for which the abundance fitness was -0.361 ± 0.12.
To Q39W belongs -0.784 ± 0.12; to Q39P, -0.843 ± 0.23.
As for Q39C, the abundance fitness was -0.386 ± 0.13.
On to Q39T, for which the abundance fitness was -0.278 ± 0.11.
In the case of Q39S, the abundance fitness was -0.297 ± 0.092.
To Q39I belongs -0.327 ± 0.17.
The result for Q39M reads -0.179 ± 0.11; that for Q39F, -0.503 ± 0.2; that for Q39R, -0.017 ± 0.073.
Turning to Q39D, the abundance fitness is -1.03 ± 0.35.
To Q39Y belongs -0.468 ± 0.14; to Q39N, -0.868 ± 0.3; to Q39G, -0.722 ± 0.095.
Consider G44C, for which the abundance fitness is -0.446 ± 0.1.
For the variant G44W, the abundance fitness is -0.541 ± 0.11.
To G44E belongs -0.222 ± 0.11; to G44M, -0.272 ± 0.18.
To G44H belongs -0.321 ± 0.13.
For the variant G44Y, the abundance fitness was -0.467 ± 0.2.
The result for G44T reads -0.557 ± 0.17; that for G44I, -0.591 ± 0.24; that for G44Q, -0.24 ± 0.12.
Regarding G44N, the abundance fitness was -0.193 ± 0.15.
To G44L belongs -0.271 ± 0.082.
To G44A belongs -0.264 ± 0.09; to G44S, -0.268 ± 0.088; to G44F, -0.394 ± 0.19.
The result for G44P reads -1.07 ± 0.3; that for G44V, -0.819 ± 0.1.
G44R: the abundance fitness is -0.22 ± 0.078.
As to S40D, the abundance fitness was -0.626 ± 0.14.
For the variant S40L, the abundance fitness was -0.538 ± 0.083.
For S40I, the abundance fitness was -0.687 ± 0.21.
The result for S40A reads -0.382 ± 0.088; that for S40E, -0.789 ± 0.13; that for S40N, -0.135 ± 0.15.
Consider S40G, for which the abundance fitness is -0.795 ± 0.087.
In the case of S40V, the abundance fitness is -0.641 ± 0.088.
S40P: the abundance fitness is -0.793 ± 0.15.
Consider S40H, for which the abundance fitness is -0.115 ± 0.15.
Regarding S40Q, the abundance fitness is -0.622 ± 0.18.
The result for S40Y reads -0.862 ± 0.21; that for S40W, -0.989 ± 0.15; that for S40K, -0.076 ± 0.13.
For the variant S40R, the abundance fitness is -0.107 ± 0.067.
In the case of S40T, the abundance fitness was -0.484 ± 0.14.
Regarding S40M, the abundance fitness is -0.918 ± 0.17.
S40F: the abundance fitness is -0.908 ± 0.12.
For the variant E30W, the abundance fitness is -0.503 ± 0.13.
The result for E30I reads -0.586 ± 0.21; that for E30Y, -0.362 ± 0.17; that for E30H, -0.247 ± 0.13.
To E30G belongs -0.21 ± 0.063.
As to E30D, the abundance fitness was -0.087 ± 0.12.
Regarding E30M, the abundance fitness was -0.278 ± 0.19.
The result for E30C reads -0.265 ± 0.12.
The result for E30L reads -0.601 ± 0.12; that for E30Q, -0.161 ± 0.15.
The result for E30F reads -0.45 ± 0.18.
For E30P, the abundance fitness is -0.752 ± 0.24.
The result for E30K reads -0.248 ± 0.15; that for E30A, -0.115 ± 0.087.
The result for E30V reads -0.17 ± 0.079.
To E30R belongs -0.285 ± 0.085; to E30T, -0.293 ± 0.12.
With E34Q, the abundance fitness was -0.149 ± 0.14.
As for E34P, the abundance fitness was -0.183 ± 0.12.
To E34R belongs 0.006 ± 0.07; to E34G, -0.13 ± 0.081.
As to E34W, the abundance fitness is -0.34 ± 0.091.
The result for E34S reads -0.054 ± 0.081.
As for E34L, the abundance fitness was -0.225 ± 0.078.
To E34H belongs -0.205 ± 0.14; to E34I, -0.142 ± 0.17.
To E34T belongs -0.092 ± 0.093; to E34M, -0.262 ± 0.1; to E34N, -0.203 ± 0.16.
To E34Y belongs -0.026 ± 0.19.
On to E34F, for which the abundance fitness was -0.138 ± 0.2.
To E34A belongs -0.065 ± 0.13.
On to E34C, for which the abundance fitness was -0.276 ± 0.11.
The result for E34V reads -0.076 ± 0.092; that for W35G, -0.303 ± 0.11.
Regarding W35Y, the abundance fitness is -0.131 ± 0.2.
The result for W35A reads -0.044 ± 0.095.
The result for W35L reads -0.029 ± 0.081; that for W35S, 0.002 ± 0.11; that for W35D, -0.444 ± 0.14.
To W35Q belongs 0.069 ± 0.15.
Turning to W35H, the abundance fitness is -0.081 ± 0.14.
The result for W35C reads -0.185 ± 0.15; that for W35M, 0.01 ± 0.12.
For W35I, the abundance fitness is -0.049 ± 0.13.
W35N: the abundance fitness was -0.128 ± 0.15.
The result for W35R reads 0.091 ± 0.085.
The result for I28D reads -0.833 ± 0.24.
With I28H, the abundance fitness was -1.03 ± 0.31.
The result for I28W reads -0.941 ± 0.29; that for I28T, -0.683 ± 0.16; that for I28Y, -0.459 ± 0.2.
The result for I28G reads -0.754 ± 0.11; that for I28R, -0.874 ± 0.1.
I28Q: the abundance fitness is -0.924 ± 0.28.
To I28N belongs -0.585 ± 0.19; to I28M, -0.662 ± 0.17; to I28C, -0.658 ± 0.11.
For I28P, the abundance fitness is -0.885 ± 0.15.
To I28A belongs -0.554 ± 0.11; to I28F, -0.977 ± 0.26.
On to I28L, for which the abundance fitness was -0.074 ± 0.088.
With I28E, the abundance fitness is -0.969 ± 0.24.
Consider I28V, for which the abundance fitness was -0.108 ± 0.085.
The result for I28S reads -0.645 ± 0.084.
The result for I28K reads -0.903 ± 0.16; that for W36T, -0.029 ± 0.15.
To W36C belongs -0.046 ± 0.098.
Turning to W36H, the abundance fitness is -0.585 ± 0.27.
The result for W36A reads 0.032 ± 0.094.
Consider W36I, for which the abundance fitness was -0.617 ± 0.31.
The result for W36L reads -0.101 ± 0.079; that for W36K, -0.521 ± 0.22.
The result for W36G reads -0.283 ± 0.067; that for W36V, -0.1 ± 0.076; that for W36E, -0.881 ± 0.16.
As for W36M, the abundance fitness was -0.075 ± 0.11.
To W36P belongs -0.298 ± 0.1; to W36R, -0.213 ± 0.066.
To W36Y belongs -0.074 ± 0.16; to W36S, -0.408 ± 0.086.
To W36F belongs -0.181 ± 0.13; to W36D, -0.614 ± 0.18.
Turning to L41N, the abundance fitness is -0.624 ± 0.24.
